Measurements as given in the supplement of paper PMC7125110.
± gives the standard error. For some assays here: Fewer inactive variants are shown than the library holds.

B1: glmS ribozyme (parent)
chain: AUAAAAGCGCCAGAACUACAGAAAUGUAGUUGACGAGGAGGAGGUUUAUCGAAUUUUCGGCGGAUGCCUCCAAA

Key:
Details in all cases: with glucosamine-6-phosphate
[1] = variants of: B1; experiment: kcat; higher = faster cleavage; RNA array
In short: (§1)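 E. coli RNA polymerase transcribed barcoded ribozyme variants in situ on sequenced MiSeq chips, which were tracked via a hybridised Cy3 probe at 37 °C. Tiles were imaged over ~14 h after glucosamine-6-phosphate (40 μM to 10 mM) in HEPES/KCl/Mg(OAc)2 buffer was flowed in. Normalised per-tile medians were fit to one- or two-exponential decays for kobs, and kcat and KM came from weighted Michaelis–Menten fits.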

[2] = variants of: B1; experiment: self-cleavage kobs at 40 uM GlcN6P; higher = faster cleavage; RNA array
In short: as §1

[3] = variants of: B1; experiment: self-cleavage kobs at 160 uM GlcN6P; higher = faster cleavage; RNA array
In short: as §1

[4] = variants of: B1; experiment: self-cleavage kobs at 640 uM GlcN6P; higher = faster cleavage; RNA array
In short: as §1

[5] = variants of: B1; experiment: self-cleavage kobs at 2500 uM GlcN6P; higher = faster cleavage; RNA array
In short: as §1

[6] = variants of: B1; experiment: self-cleavage kobs at 10000 uM GlcN6P; higher = faster cleavage; RNA array
In short: as §1

[7] = variants of: B1; experiment: KM; higher = weaker cofactor use; RNA array
In short: as §1

Variant	kcat [1] [s⁻¹]	self-cleavage kobs at 40 uM GlcN6P [2] [s⁻¹]	self-cleavage kobs at 160 uM GlcN6P [3] [s⁻¹]	self-cleavage kobs at 640 uM GlcN6P [4] [s⁻¹]	self-cleavage kobs at 2500 uM GlcN6P [5] [s⁻¹]	self-cleavage kobs at 10000 uM GlcN6P [6] [s⁻¹]	KM [7] [µM]
A12U U47G C70G	0.000218 ± 4.7e-05	6.36e-05 ± 1.3e-05	7.51e-05 ± 1.5e-05	0.000234 ± 3.9e-05	0.000217 ± 3.7e-05	0.000201 ± 3.3e-05	
A12U U46C	0.0152 ± 0.0021	0.000227 ± 3.3e-05	0.00106 ± 0.00025	0.00223 ± 0.00068	0.00688 ± 0.0018	0.0123 ± 0.0017	2700 ± 520
G13C A15G U45A	0.000289 ± 4.4e-05	< 1e-05		4.01e-05 ± 1.3e-05	0.000129 ± 2.4e-05	0.000208 ± 4.4e-05	3490 ± 950
G13A U31G	0.000328 ± 7.1e-05				6.35e-05 ± 1.5e-05	0.000153 ± 2.2e-05	
G13U A64C	1.02e-05 ± 3e-06						
G13C U69A	2.51e-05 ± 9.3e-06			4.85e-05 ± 2.3e-05			
G13A U56A	0.000767 ± 0.0001		2.49e-05 ± 1e-05	0.000106 ± 1.3e-05	0.000312 ± 3.9e-05	0.000519 ± 0.00011	3960 ± 750
A12U U45G	0.0202 ± 0.0044	0.000515 ± 6.4e-05	0.00127 ± 0.00021	0.00546 ± 0.0011	0.0134 ± 0.0027	0.0165 ± 0.0026	1870 ± 530
G13A A64G	0.0011 ± 0.0002			0.000113 ± 2.2e-05	0.000246 ± 5e-05	0.000665 ± 6.7e-05	6920 ± 2200
A12U G44C	0.000244 ± 2.8e-05			5.33e-05 ± 1.1e-05	0.000168 ± 2.9e-05	0.000195 ± 2.3e-05	2040 ± 560
G13A U56A A64G	0.000331 ± 5.8e-05			8.33e-05 ± 2.5e-05	0.000158 ± 3e-05	0.000291 ± 6.6e-05	2310 ± 840
A12U G43A	0.000218 ± 2.6e-05			4.88e-05 ± 1e-05	0.000139 ± 1.8e-05	0.000173 ± 2.2e-05	2010 ± 540
G13C C67U	4.46e-05 ± 7.3e-06				4.34e-05 ± 1.3e-05	4.04e-05 ± 7.8e-06	
G13A U57C	7.9e-05 ± 5.5e-06	< 1e-05			2.88e-05 ± 9.2e-06	5.42e-05 ± 8.5e-06	4540 ± 780
A12U U31G	0.0183 ± 0.0087	0.000567 ± 5.6e-05	0.00142 ± 0.00026	0.00439 ± 0.00076	0.00841 ± 0.0023	0.0262 ± 0.0045	
A12U U31A	0.0283 ± 0.0065	0.000416 ± 7.3e-05	0.00177 ± 0.00045	0.00457 ± 0.0011	0.0106 ± 0.0026	0.0257 ± 0.0049	2890 ± 880
G13A G32U	0.000303 ± 3.2e-05			4.76e-05 ± 1e-05	0.000147 ± 2.3e-05	0.000221 ± 3.7e-05	3170 ± 600

Variant	kcat [1] [s⁻¹]	self-cleavage kobs at 40 uM GlcN6P [2] [s⁻¹]	self-cleavage kobs at 160 uM GlcN6P [3] [s⁻¹]	self-cleavage kobs at 640 uM GlcN6P [4] [s⁻¹]	self-cleavage kobs at 2500 uM GlcN6P [5] [s⁻¹]	self-cleavage kobs at 10000 uM GlcN6P [6] [s⁻¹]	KM [7] [µM]
G13A G41U	5.73e-05 ± 8.7e-06	< 1e-05					
G13A G41A	6.21e-05 ± 2.2e-06				3.77e-05 ± 1.2e-05	5.25e-05 ± 8.1e-06	1770 ± 270
G13U A52U	1.58e-05 ± 2.6e-06	< 1e-05	< 1e-05				
G13C G41A	5.76e-05 ± 4.7e-06	< 1e-05		< 1e-05			
A12U U57C	0.00174 ± 0.00086	6.27e-05 ± 2.3e-05	6.12e-05 ± 2.3e-05	0.000217 ± 3.9e-05	0.000638 ± 0.00014	0.00126 ± 0.00038	
A12U U57G	0.000297 ± 3.7e-05		4.4e-05 ± 2.1e-05	6.1e-05 ± 1.2e-05	0.000162 ± 2.6e-05	0.000241 ± 3e-05	2260 ± 590
G13C A14U C68U	1.07e-05 ± 1.2e-06						
G13U A14C	0.00021 ± 2.8e-05				4.71e-05 ± 9.7e-06	0.00011 ± 2e-05	8960 ± 1900
G13C U30C	0.000129 ± 2e-05	< 1e-05		4.05e-05 ± 1.7e-05	8.07e-05 ± 2e-05		1470 ± 480
G13C U47G	3.48e-05 ± 2.1e-06	< 1e-05				3.53e-05 ± 8.5e-06	
G13A C67G	2.66e-05 ± 2.6e-06	< 1e-05		2.71e-05 ± 1.2e-05	3.63e-05 ± 1.7e-05	2.48e-05 ± 6.5e-06	
G13A U31A G32A C50G C67G	4.8e-05 ± 1.5e-05			4.97e-05 ± 2.2e-05	5.25e-05 ± 1.8e-05		
G13U A15U	0.000299 ± 2e-05				9.42e-05 ± 1.4e-05	0.000194 ± 1.9e-05	5440 ± 760
G13U A15G	0.00265 ± 0.0011		0.000116 ± 5e-05	0.000388 ± 7.5e-05	0.000584 ± 0.00014	0.00191 ± 0.00025	
G13C A53U	0.000137 ± 1.4e-05				4.93e-05 ± 1.6e-05	8.95e-05 ± 1.3e-05	5250 ± 1300
G13U C68A	1.31e-05 ± 2e-06						
